These results are taken from the DeepSol protein solubility set.

The data set is described as follows: soluble on expression in E. coli; label from the status in PepcDB or PDB records.
“MNDHKALKIFLMAAEKRNFAQVARELSMTAAGVTRAIAALECDLGVQLFVRTTRQVSLTTDGAVFAAQIQPAVEALENARRDVRNAHKADEGRLRISAPTWLGKTVLPPILSGFRELYPKMCFEISLSDGLVNIVDDDYDLAIRISSAPSDKFTIWRKIRAVPRILVAAPGSRFTQMKHPSDLTPDDCLAYSGESRRENWILSDGGSSITITAGRAFSANNGEVLADMAADGAGVAMLPGFHIAEHIRSGRLVHVLPGWAPPELWLTLYYPPYQTLPPRIATFSKFFEEQLTAHMVALD”: the “soluble on expression in E. coli” value is “not soluble”. For the sequence “MGSDKIHHHHHHMVNEELLWVLWQHLLFSVESLHTTTGEPIIIKHTGTLNVHAGPDFSLAKLCIDGIEWAGDVEIHTKASDWYKHKHQHNPAYESVILHVVYEADIDITRADGSCIPVLELKDRIHTMHLETYGYLMEEKKTVPCAHAIHEIPAIVMEQMKQRVLIERLERKTDGLFQLLTDQPNWKMIAGRLIFKSFGTGLNDYLFERMAQQMDFNKLDRLSYAPKSIEALFFGCSGMLEKDWADDFPAALKKEYTYLQRTQTVTCTIDSSEWKFLRTRPVNFPTIRLAQLAALFSNTDWYASFSSITSVKYAEDFLNVSLSDYWLNHYRFDVLSKPAPKHIGKTFANTFLLNAYIPFLVLHARYYKNETTWEQVFEMLDTIQAEDNAITRVWKELGIRMDTGFDSQSGLELYKMYCTHKKCLSCSIGFSILRNASVSAVVK”, the “soluble on expression in E. coli” value is listed as “not soluble”. Take “MKLYQHIETLWDYMQLKQDLKPADCLFVMCSNDVRVAEHAAALYHQKLAPLIVFSGGEGRFTDGLFEKSEAETFADIARLAGVPSDAILVETRSTNSGENVRFTEQLLKEKGIQCESIILVQKPFMERRAIATFEKQWQSPYSQVQVSSTAHPFFEYINEDMPLMMVLEALMEDFSRVKSYPEKGFQTKQDIPNQVDSSYQVLLERFGFDLVLEHHHHHH”: the “soluble on expression in E. coli” value is “not soluble”. Take “MQKKSIYVAYTGGTIGMQRSDNGYIPVSGHLQRQLALMPEFHRPEMPDFTIHEYAPLIDSSDMTPEDWQHIANDIQQNYDLYDGFVILHGTDTMAFTASALSFMLENLAKPVIITGSQIPLAELRSDGQTNLLNALYLAANHPVNEVSLFFNNQLFRGNRTTKAHADGFDAFASPNLSVLLEAGIHIRRQSSVVSPTSNGPLIVHRITPQPIGVVTIYPGISGAVVRNFLLQPVKALILRSYGVGNAPQKAELLDELKNASDRGIVVVNLTQCISGSVNMGGYATGNALAQAGVISGFDMTVEAALTKLHYLLSQSLSPNEIRQLMQQNLRGELTDTQ”: the “soluble on expression in E. coli” value is given as “soluble”. As to “MSLEESAVPGWVLELLREAGYKSLLPIQEKAFPIIYRGLNALVVAPTGSGKTEAALAPLLARLRNGRVASGGGVKVVYVTPLRALNRDLEGRVERLAGLFGYTVQVRHGDTVQSSRRRFLERPPDIVITTPESLALLLTVKRAKEVLKQARAVVVDEIHELMESKRGVELSLNLEKLELMAGRRLQRIGLSATVSRHSLYRAASLLGAGRHVSMVLDTSPKEYDVRVVVVGDEGRFWENSVKAIAELVKGEGGSVLIFANTRSTVETLAFALSRELGEEVPAHHGSLSRHVRERVERDFKEGRVKAIVATSSLELGIDVGRVALVVQFLSPRQVTAMVQRAGRSGHRFGERSRAVIVTIDNVFEVLESHVIAFRAMKGDLEDISIPKKPYDALAHFMAGAAIDSEPPTLEGVYKLAVSTAPYEDLKMEEVEEIARVLSDVRVIRLGPGGKLGRSSRTYSYFYRVSMIPDEKTFKVHDVVSGRDVGEVGERFIQLRLMKASDPREGHHHHHH”, the “soluble on expression in E. coli” value is “not soluble”. On to “MQTVGVHSIVQQLHRNSIQFTDGYEVKEDIGVGSYSVCKRCIHKATNMEFAVKIIDKSKRDPTEEIEILLRYGQHPNIITLKDVYDDGKYVYVVTELMKGGELLDKILRQKFFSEREASAVLFTITKTVEYLHAQGVVHRDLKPSNILYVDESGNPESIRICDFGFAKQLRAENGLLMTPCYTANFVAPEVLERQGYDAACDIWSLGVLLYTMLTGYTPFANGPDDTPEEILARIGSGKFSLSGGYWNSVSDTAKDLVSKMLHVDPHQRLTAALVLRHPWIVHWDQLPQYQLNRQDAPHLVKGAMAATYSALNRNQSPVLEPVGRSTLAQRRGIKKITSTAL”, for which the “soluble on expression in E. coli” value was “soluble”.

On to “MIREAQRSELPAILELWLESTTWGHPFIKANYWRDCIPLVRDAYLANAQNWVWEEDGKLLGFVSIMEGRFLAAMFVAPKAVRRGIGKALMQYVQQRYPHLMLEVYQKNQPAIDFYRAQGFHIVDCAWQDETQLPTWIMSWPVVQTL”, for which the “soluble on expression in E. coli” value is reported as “not soluble”. Under “STDVHRRFLQLLMTHGVLEEWDVKRLQTHCYKVHDRSATVDKLEDFINNINSVLESLYIEIKRGVTEDDGRPIYALVNLATTSISKMATDFAENELDLFRKALELIIDSETGFASSTNILNLVDQLKGKKMRKKEAEQVLQKFVQNKWLIEKEGEFTLHGRAILEMEQYIRETYPDAVKICNICHSLLIQGQSCETCGIRMHLPCVAKYFQSNAEPRCPHCNDYWPHEIPKVFDPEKERESGVLKSNKKSLRSRQH” stands “soluble”; under “MGSDKIHHHHHHMSDRNTSNSLTLKERMLSAGAGSVLTSLILTPMDVVRIRLQQQQMIPDCSCDGAAEVPNAVSSGSKMKTFTNVGGQNLNNAKIFWESACFQELHCKNSSLKFNGTLEAFTKIASVEGITSLWRGISLTLLMAIPANMVYFSGYEYIRDVSPIASTYPTLNPLFCGAIARVFAATSIAPLELVKTKLQSIPRSSKSTKTWMMVKDLLNETRQEMKMVGPSRALFKGLEITLWRDVPFSAIYWSSYELCKERLWLDSTRFASKDANWVHFINSFASGCISGMIAAICTHPFDVGKTRWQISMMNNSDPKGGNRSRNMFKFLETIWRTEGLAALYTGLAARVIKIRPSCAIMISSYEISKKVFGNKLHQ”, “not soluble”; under “GPGSMSFYRTKKVIINSLFSDSSWYCTFRFRNPMTSQRRSCHEGIPSGRVTGNSVTLLSEMRENNAIGVEAVGKERKRPDAMTVLSNVFRTNPAALRLHRELTICIASGETERASDLASVLAGLVKRTTRLDDIEQKCAEEGGRSKVPNDPVPVVGEETVEFLTSNVVRGVSSQSRLESIEILHNDAPGAPYLGEKVAEAAEVKDSEPLPFWKNPDALRLTLLESAFEMALADDNENPLQPGSVEADCLEKERMEILDAYLKREGKRWELQKAAVARAIVATVKDLGVVPEDIHAALQAEGELRLNGSDKRFNVLKHCNIIVRGEVPEVMELQMKGTATRNVEASVSQELDVLINRMSSTGTPLSQRDKDLALFELVMSKSKMRYVVGLHRELQVALDTAPALRKLAVEHRAKSGSVLFVERALKMLNKVAPDGSETTAEDVECIDTISTPVLPFTFMLKMCLWFEAPVAM”, “not soluble”. As to “TRVYDESGKEVGKLFGQKGTFVELDNISPYIQDAVISTEDRGFYQHKGYSIKGIARAVVGKLTFGKIGGGGGGSTITQQLAKNAYLTQEQTLDRKARELFLAIEIEKKYSKKDILAMYLNNSYFGNGVWGVQDAARKYFGVDASQVTVGEAATLAGMLKGPGIYNPIDYI”, the “soluble on expression in E. coli” value is on record as “not soluble”. For “MSRYGRYGGETKVYVGNLGTGAGKGELERAFSYYGPLRTVWIARNPPGFAFVEFEDPRDAEDAVRGLDGKVICGSRVRVELSTGMPRRSRFDRPPARRPFDPNDRCYECGEKGHYAYDCHRYSRRRRSRSRSRSHSRSRGRRYSRSRSRSRGRRSRSASPRRSRSISLRRSRSASLRRSRSGSIKGSRYFQSPSRSRSRSRSISRPRSSRSKSRSPSPKRSRSPSGSPRRSASPERMD”, the “soluble on expression in E. coli” value is on record as “not soluble”.

Regarding “MSFDKKVTIAHLSDLHFASKNDRYLTARLDTMLGEFVRRKYDHLVMTGDLIDTASPALWTIIRDALVRHGLFDWTKTTVIPGNHDLIDLEEEMRFYNALNPDDRSRQHRVDDRLRQFNAIFRPLITDNGDALAGVPFVKVMRLGGISLSFVAVNTVDPWSGLDNPAGARGSVSPETLRALQEPGVRQVLDDTFIIGLCHHAYKVYGTGALVDQVFDWTMEFKNRDEYLKAMKNLGVRLVLHGHFHRFQVYQANGINFINGGSFRYSPERYGELVINADGRWSHRFVNLALKKLEHHHHHH”, the “soluble on expression in E. coli” value was “not soluble”. As for “MLILNQRQQELLDMVKRESYVSVEKLADHFSVTRQTIRRDIALLAEHQLLQRYHGGASVLSSVENVAYQARQVLCIEEKRRIAACVARHIPDNASLFINLGTTTEEVAKALHRHRGLRVITNNLHVAEQMCDYPDCEVIVLGGSLRKRDRGLTGEATVQMIRQFRVDYGIIGVSSIESDGTLRDYDYREVRTTEAIIQQSRQVFLAADHSKFDRPALVELGRLSQIAALFTDKPVPPAIAHVMQEAGTQLHVAELEHHHHHH”, the “soluble on expression in E. coli” value is “soluble”.

Turning to “MVLTEDFGYPLSRIKLEYEVTFGREKKRADIVIFDKQQTDSPYIIIEVKKPKLKDGKEQLKSYCNATGAPIGVWSNGKSISYYHRKDPNYFEDISNIPRADQKLSDILSERWTIADLIEKDKLISERKSLKDLILEMEDEVLAGAGVDVFEEVFKLIFTKLFDEMESGRNNERNLEFRNYGDTETELKERIQNLFDKARDKWEGVFSPDAKIQLTPSHLSVCVASLQDVKLFNSNLDVVDEAFEYLINKSSKGEKGQYFTPRYVIDMCVKMLNPTANEKMIDTASGSCGFPVHTIFHVWENILKEKGLERSHLFTLEQKPAECTDYVNDNVFAIDFDEKAVRVARTLNLIAGDGQTNVLHLNTLDYERWEQNLDSEDWQDTYFEGWKKLKKLRTRKDSYRDFTFDIVMANPPFAGEVKESRILAKYDMSRSMSLEKVKIAPKGATIVEGEPTFSEALANTGETIYQMSDGTYRKTKLKQAGNMSRDILFVERNLDFLKPGGRMAIVLPQGRFNNSSDKALREYIADRCRILAVVGLHGNVFKPHTGTKTSVLFVQKWDEELCPRVEDYNIFFATMQEPSKDNSGDKIYRSTTNEEGENVPLLDTHGHLIVKHDLFNHDGLTEDGIAEAFAEFAKKERLSFFADAPLTK”, the “soluble on expression in E. coli” value is recorded as “not soluble”.

On to “MNHQSYSAPTQAVAANTHLIYSTEQGGAVSPTPQKSIGSIADYDPMNGQWGTAAAQPRNSEKLGYLKAQVDKGPARFCADFAGAPPPSSNSISSTSPHSTLSSPQSTISPTGKAGFAVKAIYDYAAADKDEISFLEGDIIVNCEKIDDGWMTGTVQRTLQWGMLPANYVQPHKLPTGLHRLS”, for which the “soluble on expression in E. coli” value is given as “not soluble”. For “MKLLKKPAGLKKRKVISKRIKIEKKPSSEDEGSSDEEVPKLDGEGSLDGSEDEDDGTVTVEKGGVKKHKLDLEKLKQSDPEFFKFLQQEDADLLNMEDDGDDDEDDDEDDEDEEEEESDDDEDDEEDDDKTKIKKIRKPKIKSDNSGRLIVDSNVYSYLQQVLVLDDETSTPTNPSDVRMAVDVFVACVARVGADIEAPKYVINEQSIFEAVVRMCFQAMPDILKRLLKAKPEGDKVLFSKTAIKKYQTYVRTYLHAMIVFLNEVQTTEVLIATIKAMTRLVDLYAHFSRMSKLLIKAVVRIWSRKTLECRLPAFVCMNLLVKNYPQHFVPLYKTAYVAFVANSKIVTNETWPLLQFMHRTFAELTILNPEQAYKYAFVYIRQTAVHLRNAMISKGRKDLIFSIYNWQMMQCMYMWVRVIAKAHSVNGAEQIGELVYPLIQVIVGIFKLCNAPTFLPLRLHCCQLLIQLQASCTNYIPILQVSCDCLEELARELKSKPKPVKGAVKLPDIECTLKCSSQFSDLPQWRKVISEHVFRTMMQSAHLLASQAAFPDVVLPINHRISAILETMKNGDHAHLFRGFQTKLKEHSRFVLDVLARKSVDINDEMQVRAVRFDLNNHDSPIKTFYRQWEKVWKMKERSAVENSKKDDKKKKKEEEAAAAKKRKPNETVEDEDDVKPEVSKAKRKRIKIGAAAKKADASVPDQFADMSMWSDED”, the “soluble on expression in E. coli” value was “soluble”.

For the sequence “MARHFGMALAPWDVMGGGRFQSKKAMEERRKNGECIRSFVGASEQTDAEIKISEALAKVAEEHGTESVTAIAIAYVRSKAKNVFPSVEGGKIEDLKENIKALSIDLTPDNIKYLENVVPFDIGFPNTFIVLNSLTQKYGTNNV”, the “soluble on expression in E. coli” value is “soluble”.
